Measured values as given in ChEMBL document CHEMBL4706636, “Determining Essential Requirements for Fluorophore Selection in Various Fluorescence Applications Taking Advantage of Diverse Structure-Fluorescence Information of Chromone Derivatives” (J Med Chem, 2021).

Legend:
[1] = system: CCCc1coc2cc(NC(=O)C(N)CCCCN)c(OC)cc2c1=O; assay: (§1) Substrate activity at trypsin (unknown origin) by fluorescent biochemical assay; assay type: protein assay; conditions: Homo sapiens
[2] = system: CCCc1coc2cc(NC(=O)C(N)CCCCN)ccc2c1=O; assay: as §1; assay type: protein assay; conditions: Homo sapiens

Trypsin (Homo sapiens) (from UniProt P07477+P07478+P35030)
Km [1]: 30.3 µM
Km [2]: 47.6 µM
